Patent US20240343811A1 (SHANDONG SIMCERE BIOPHARMACUTICAL, published 2024)
Read-outs that look alike come from different tables or passages of the source.

T1: Human CD16b (SH)-his (human)
T1 construct: entry holds ECD, linker, His tag and AVI tag
T1 chain: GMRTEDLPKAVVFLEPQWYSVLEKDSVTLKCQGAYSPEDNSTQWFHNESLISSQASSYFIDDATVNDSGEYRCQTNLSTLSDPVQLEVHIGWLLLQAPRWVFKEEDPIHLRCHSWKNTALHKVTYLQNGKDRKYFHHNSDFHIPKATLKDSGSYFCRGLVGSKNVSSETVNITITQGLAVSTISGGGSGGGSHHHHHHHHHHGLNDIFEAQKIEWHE

T2: human CD16b (NA1), full length, on FlpinCHO cells (human, UniProt O75015 17-200)
T2 construct: also called FlpinCHO-human CD16b (NA1)
T2 chain: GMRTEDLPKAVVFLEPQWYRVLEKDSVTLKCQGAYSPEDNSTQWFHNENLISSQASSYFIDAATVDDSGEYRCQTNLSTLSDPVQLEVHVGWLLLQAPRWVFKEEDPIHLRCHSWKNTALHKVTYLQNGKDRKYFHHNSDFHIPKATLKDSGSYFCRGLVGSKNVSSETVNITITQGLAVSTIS

T3: human CD16b (NA2), full length, on FlpinCHO cells (human, UniProt O75015 17-200)
T3 construct: also called FlpinCHO-human CD16b (NA2)
T3 chain: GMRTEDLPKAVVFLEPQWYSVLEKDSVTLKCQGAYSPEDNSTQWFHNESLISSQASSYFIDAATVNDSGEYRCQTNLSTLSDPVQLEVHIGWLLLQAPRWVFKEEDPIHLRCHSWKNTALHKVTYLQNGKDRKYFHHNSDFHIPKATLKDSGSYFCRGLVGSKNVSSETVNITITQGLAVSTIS


Columns and labels:
[1] = biological target: T4, cynomolgus monkey CD16, full length, on FlpinCHO cells (cynomolgus monkey, UniProt Q8SPW2 17-254); experiment: FACS on FlpinCHO cells
T4 construct: also called FlpinCHO-cyno CD16; Flipin CHO-cyno CD16
In short: (§1)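 FlpinCHO cells expressing full-length cynomolgus CD16, blocked in PBS/2% BSA at 2×10⁶ cells/ml, incubated with antibody at various concentrations 1 h on ice. Flow cytometry MFI fitted to give EC50.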

[2] = biological target: T1, Human CD16b (SH)-his; experiment: SPR (Biacore), antibody captured on Protein A
In short: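 Protein A–captured antibody was probed with CD16-his ECD in HBS-EP+ at 25 °C: five 2-fold dilutions from 200 nM, 240 s at 30 μL/min, dissociation up to 600 s. Glycine pH 1.5 regenerated the chip. Apparent KD came from a double-referenced 1:1 Langmuir fit.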

[3] = biological target: human CD16a (158F), full length, on FlpinCHO cells (human, UniProt P08637 17-254); experiment: FACS on FlpinCHO cells
[4] = biological target: T5, human CD16a (158V), full length, on cells (human, UniProt P08637 17-254); experiment: FACS on FlpinCHO cells
T5 construct: also used as target for the bought Jurkat-NFAT reporter line stably expressing human CD16a (158V); also called FlpinCHO-human CD16a (158V); FlpinCHO-CD16a (158V)

[5] = biological target: T2, human CD16b (NA1), full length, on …; experiment: FACS on FlpinCHO cells
In short: (§2)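 EC50 values come from fitted MFI curves measured by FACS. Antibody dilutions were bound for 1 hour on ice to CD16b-transfected FlpinCHO cells suspended in PBS with 2% BSA blocking solution.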

[6] = biological target: T3, human CD16b (NA2), full length, on …; experiment: FACS on FlpinCHO cells
In short: as §2

[7] = biological target: T4, cynomolgus monkey CD16, full length, on …; experiment: FACS on FlpinCHO cells; remark: listed apart in the source
In short: as §1

[8] = biological target: T5, human CD16a (158V), full length, on …; experiment: cell-based or functional assay

T4 sequence (Q8SPW2 other isoform, or with tags, fused parts or gaps limits assumed): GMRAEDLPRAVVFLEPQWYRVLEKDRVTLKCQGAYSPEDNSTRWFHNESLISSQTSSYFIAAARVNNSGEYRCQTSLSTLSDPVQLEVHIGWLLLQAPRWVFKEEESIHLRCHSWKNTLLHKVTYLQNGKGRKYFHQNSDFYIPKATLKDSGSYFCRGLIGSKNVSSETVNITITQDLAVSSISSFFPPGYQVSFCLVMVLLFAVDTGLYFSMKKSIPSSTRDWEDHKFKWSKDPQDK
human CD16a (158F), full length, on FlpinCHO cells, sequence (P08637 17-254 limits assumed): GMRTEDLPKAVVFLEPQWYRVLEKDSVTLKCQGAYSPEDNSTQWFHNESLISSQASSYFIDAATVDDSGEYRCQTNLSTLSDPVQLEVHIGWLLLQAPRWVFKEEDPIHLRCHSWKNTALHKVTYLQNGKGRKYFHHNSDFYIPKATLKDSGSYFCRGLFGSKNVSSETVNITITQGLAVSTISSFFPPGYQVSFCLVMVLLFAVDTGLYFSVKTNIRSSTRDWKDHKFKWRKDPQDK
T5 sequence (P08637 17-254 F176V limits assumed): as the sequence (P08637 17-254 limits assumed) above, with F160V counted along it

Row | EC50 [1] [nM] | Maximum mean fluorescence intensity [1] | Kd [2] [nM] | koff [2] [s⁻¹] | kon [2] [M⁻¹ s⁻¹] | EC50 [3] [nM] | Maximum mean fluorescence intensity [3] | EC50 [4] [nM] | Maximum mean fluorescence intensity [4] | EC50 [5] [nM] | Maximum mean fluorescence intensity [5] | Maximum mean fluorescence intensity [6] | EC50 [7] [nM] | Maximum mean fluorescence intensity [7] | EC50, activation activity for Jurkat cell [8] [nM] | Maximum fluorescence value [8] | Binder
1 | 0.41 | 22000 | 4930 | 0.193 | 39100 |  |  |  |  |  |  |  |  |  |  |  | VHH11 VHH-Fc antibody (Fc fusion) EVQVVESGGGLAQAGGSLRLSCAVSGITFSSYAMGWYRQDPGKQRELVAAINRFGLTNYADSVKGRFTISRDNAKNTVYLQMTSLKPEDTAVYYCNTGGVYSHPNYYTGTYWGQGTQVTVSSEPKSSDKTHTCPPCPAPEFEGGPSVFLFPPKPKDTLMISRTPEVTCVVVAVSHEDPEVKFNWYVDGVEVHNAKTKPREEQYNSTYRVVSVLTVLHQDWLNGKEYKCKVSNKALPAPIEKTISKAKGQPREPQVYTLPPSREEMTKNQVSLTCLVKGFYPSDIAVEWESNGQPENNYKTTPPVLDSDGSFFLYSKLTVDKSRWQQGNVFSCSVMHEALHNHYTQKSLSLSPGK
2 | 0.24 | 22200 | 1160 | 0.106 | 91500 | 0.23 | 8730 | 0.24 | 8050 | 0.7 | 60500 | 87900 | 0.35 | 18400 | 0.01 | 142000 | VHH12 VHH-Fc antibody (Fc fusion) QVQLVESGGGLVQAGGSLRLSCAASGITFSSYAMGWYRQAPGKQRELVAAINRFGLTNYADFVKGRFTISRVNAKNTVYLQMTSLKPEDTAVYYCNTGGVYSHPDYYTGTYWGQGTQVTVSSEPKSSDKTHTCPPCPAPEFEGGPSVFLFPPKPKDTLMISRTPEVTCVVVAVSHEDPEVKFNWYVDGVEVHNAKTKPREEQYNSTYRVVSVLTVLHQDWLNGKEYKCKVSNKALPAPIEKTISKAKGQPREPQVYTLPPSREEMTKNQVSLTCLVKGFYPSDIAVEWESNGQPENNYKTTPPVLDSDGSFFLYSKLTVDKSRWQQGNVFSCSVMHEALHNHYTQKSLSLSPGK
3 |  |  |  |  |  | 0.61 | 10200 | 0.66 | 9250 | 0.74 | 54100 | 468 |  |  | 0.02 | 168000 | VHH06 VHH-Fc antibody (Fc fusion) EVQLVESGGGLVQAGGSLRLSCVASGSTWTTYAVRWYRQAPGKQREWVAFISVDGSTNYPDSVKGRFIVSRDNAKNTVYLQMNSLKPEDTADYICRVGGQYWGQGTQVTVSSEPKSSDKTHTCPPCPAPEFEGGPSVFLFPPKPKDTLMISRTPEVTCVVVAVSHEDPEVKFNWYVDGVEVHNAKTKPREEQYNSTYRVVSVLTVLHQDWLNGKEYKCKVSNKALPAPIEKTISKAKGQPREPQVYTLPPSREEMTKNQVSLTCLVKGFYPSDIAVEWESNGQPENNYKTTPPVLDSDGSFFLYSKLTVDKSRWQQGNVFSCSVMHEALHNHYTQKSLSLSPGK
